Experiment [1] has as its target T1, human CD33 (full length ECD), recombinant (human, UniProt P20138 18-259).
T1 construct: extracellular domain; Tag or HSA fusion partner unknown; also called hu CD33 (FL ECD); hCD33-FL ECD
The experiment can be described thus: SPR (Biacore 8K), antibody captured by anti-human Fc, antigen in solution. On the technique in general: In SPR one partner is held on a chip, and binding of the other changes the refractive index at the surface.
Description: (§1) Affinities (KD) for the interaction of anti-CD33 antibodies human CD33 (full length ECD and IgC2 domain) were obtained by SPR. The anti-CD33 antibodies were captured using an anti-human Fc antibody and the antigens were injected in solution.
(§2) The binding affinity of anti-CD33 antibodies and Llama vHHs to the recombinant human CD33 (FL ECD or IgC2 domain) was determined by surface plasmon resonance (SPR) using Biacore 8K instrument. […] The association and dissociation were monitored for 2 and 30 minutes, respectively, using a flow rate of 50 μL/min. Raw binding data was referenced by subtracting the analyte binding signals from blanks and analyzed using a 1:1 Langmuir binding model using the Biacore software to obtain the kinetics which were used to calculate the binding affinity.

The target of experiment [2] is T2, human CD33 IgC2 domain, recombinant (human, UniProt P20138 136-259).
T2 construct: domain: IgC2; also called hu CD33 (IgC2); hCD33-IgC2
T2 sequence (P20138 136-259 limits assumed): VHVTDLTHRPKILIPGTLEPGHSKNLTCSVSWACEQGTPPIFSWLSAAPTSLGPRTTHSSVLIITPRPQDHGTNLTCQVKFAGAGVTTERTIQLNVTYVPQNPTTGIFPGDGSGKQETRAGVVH
Described as above.
Description: as §1, §2

In experiment [3] the target is T3, human CD33 on cells (MOLM-13, Kasumi-1, OCI-AML-3, Kasumi-3) (human, UniProt P20138 18-364).
T3 construct: whole, on cells; also called CD33 expressing cells; CD33+ cell lines
T3 sequence (P20138 18-364): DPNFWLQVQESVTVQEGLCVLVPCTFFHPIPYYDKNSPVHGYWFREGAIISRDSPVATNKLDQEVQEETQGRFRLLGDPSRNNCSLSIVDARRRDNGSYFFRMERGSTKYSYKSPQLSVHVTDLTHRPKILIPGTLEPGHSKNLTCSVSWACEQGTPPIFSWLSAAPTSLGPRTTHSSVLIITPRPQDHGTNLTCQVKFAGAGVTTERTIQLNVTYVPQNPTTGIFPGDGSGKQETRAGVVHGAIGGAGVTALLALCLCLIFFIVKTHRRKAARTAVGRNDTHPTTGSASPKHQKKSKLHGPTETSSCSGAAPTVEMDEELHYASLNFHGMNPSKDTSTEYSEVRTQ
As to the kind of experiment: flow cytometry on MOLM-13 cells, 4 °C, detection with PE goat F(ab')2 anti-human IgG-Fc. In general terms: A flow cytometer gives signals particle by particle.

Experiment [4] addresses T3, human CD33 on cells (MOLM-13, Kasumi-1, …). The experiment can be described thus: flow cytometry on OCI-AML-3 cells, 4 °C, serial dilutions of the antibody.
Description: (§3) Cells were harvested, washed once with PBS and then stained with the fixable viability dye at room temperature for 30 min. Following incubation, cells were washed twice with FACS buffer (PBS+2% FBS). Cells were then used for binding assay with test antibodies. 100,000 cells were stained with the test antibodies in a 100 ul staining volume. Antibodies for staining were diluted in FACS buffer and incubated with the cells for 40 mins on ice, followed by washing 2X with FACS buffer. Test antibodies were then detected using the PE conjugated Goat F(ab′)2 Anti-Human IgG-Fc (ab98596; Abcam) for 40 minutes on ice. Following washing, data was acquired on the Novocyte flow cytometer (ACEA). Cells were gated on FSC/SSC, followed by live cell gating and doublet discrimination. Data was analyzed using Flow Jo (BD).
(§4) Median fluorescence intensity values were used to plot a 4-parameter non-linear regression analysis curve after subtracting the MFI of the secondary only sample.
(§5) The binding EC₅₀ values of CD33 antibodies to high (MOLM-13), medium (Kasumi-1) and low (OCI-AML-3) cell lines were assayed. Binding was carried out at 4° C. with serial dilutions of the antibody.
Experiment [5] addresses T1, human CD33 (full length ECD), …. As to the kind of experiment: SPR (Biacore 8K), vHH-mono-Fc captured by anti-human Fc, antigen in solution.
Description: as §2
(§6) The anti-CD33 Llama vHHs on a mono-Fc backbone were captured using an anti-human Fc antibody and the antigens were injected in solution.
In experiment [6] the target is T2, human CD33 IgC2 domain, recombinant. The experiment is described as above.
Description: as §2, §6
Experiment [7] has as its target T3, human CD33 on cells (MOLM-13, Kasumi-1, …). The experiment can be described thus: flow cytometry on MOLM-13 cells, 4 °C, serial dilutions of the antibody.
Description: as §3, §4, §5

Usually Kd stands for the concentration at which binding is half-saturated. A word on the EC50: it is the concentration at which the effect is half-maximal.

T1 sequence (P20138 18-259): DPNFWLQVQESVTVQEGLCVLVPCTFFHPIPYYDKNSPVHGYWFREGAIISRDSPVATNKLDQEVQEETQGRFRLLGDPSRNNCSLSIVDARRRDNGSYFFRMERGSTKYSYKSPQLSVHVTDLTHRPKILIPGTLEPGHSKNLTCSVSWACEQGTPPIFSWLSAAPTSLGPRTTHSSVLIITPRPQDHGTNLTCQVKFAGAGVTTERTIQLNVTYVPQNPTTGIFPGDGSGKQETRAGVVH

B1: C33B931 (antibody, V domains shown)
VH: not shown
VL: SYELTQPPSVSVSPGQTASITCSGDKLGSKFASWYQQKPGQSPVLVIYQDSKRPSGIPERFSGSNSGNTATLTISGTQAMDEADYYCQAWDSSTVVFGGGTKLTVL
In the case of B1, the Kd in experiment [1] was 0.4 nM.

B2: C33B919 (antibody, V domains shown)
VH: QVQLVESGGGVVQPGRSLRLSCAASGFTFSSYGMHWVRQAPGKGLEWVAVISYDGSNKYYADSVKGRFTISRDNSKNTLYLQMNSLRAEDTAVYYCAKDFRSFDWLPPDSTSYYGMDVWGQGTTVTVSS
VL: SYELTQPPSVSVSPGQTASITCSGDKLGDKYVSWYQQKPGQSPVVVIHQDRKRPSGIPERFSGSNFGNTATLTISGTQAMDEADYYCQAWDSSTVVFGGGTKLTVL
For B2, in experiment [2], the binding result is on record as “no binding (tested: 40 nM-1.6 nM CD33 antigen)”. In addition, in experiment [1], the Kd came out at 0.5 nM.

B3: C33B125 (antibody, V domains shown)
VH: QVQLVESGGGVVQPGRSLRLSCAASGFTFSSYGMHWVRQAPGKGLEWVAVISYDGSNKYYADSVKGRFTISRDNSKNTLYLQMNSLRAEDTAVYYCAKDFRSFDWLPPDSTSYYGMDVWGQGTTVTVSS
VL: SYELTQPPSVSVSPGQTASITCSGDKLGDKYVCWYQQKPGQSPVVVIHQDRKRPSGIPERFSGSNFGNTATLTISGTQAMDEADYYCQAWDSSTVVFGGGTKLTVL
Consider B3, for which the figures for the Kd in experiment [2] and in experiment [1] were over 10 nM and 0.1 nM, respectively.

B4: C33B933 (antibody, V domains shown)
VH: QVQLVESGGGVVQPGRSLRLSCAASGFTFSSYGMHWVRQSPGKGLEWVAVISYDGSNKYYADSVKGRFTISRDNSKSTLYLQMNSLRAEDTAVYYCAKDFRSLDWLPPDSTSYDGMDVWGQGTTVTVSS
VL: SYELTQPPSVSVSPGQTASITCSGHKLGDKYASWYQQKPGQSPVVVIYKDSKRPSGIPERFSGSNFGNTATLTISGTQAMDEADYYCQAWDSSTVVFGGGTKLTVL
For B4, the Kd in experiment [1] amounted to 0.5 nM.

B5: C33B937 (antibody, V domains shown)
VH: QVQLVESGGGVVQPGRSLRLSCVASGFTFSSYGMHWVRQAPGKGLEWVAVISYDGSNKYYADSVKGRFTISRDNSKNTLYLQMNSLRAEGTAVYYCAKDFRSFDWLPPDSASYHGMDVWGQGTTVTVSS
VL: SYELTQPPSVSVSPGQTASITCSGDKLGDKYASWYQQKPGQSPVLVIYQDGKRPSGIPERFSGSNFGNKATLTISGTQAMDEADYYCQAWDRNTVVFGGGTKLTVL
Regarding B5, the Kd in experiment [2] is 56 nM; in experiment [1], 0.3 nM.

B6: C33B1478 (antibody, V domains shown)
VH: EVQLVESGGGLVQPGGSLKVSCEASGFTFSVSAIHWVRQASGKGLEWIGRIRSKGNSYATAYDVSVKGRFTISRDDSKNTAYLQMDSLKTEDTAVYYCTRHNDKWNYYGLDVWGQGTTVTVSS
VL: DIVMTQSPLSLPVTPGEPASISCKSSQSLLFSNGYKFLDWYLQRPGQSPQLLIYLGSYRASGVPDRFSGSGSGTDFTLKISRVEAEDVGLYYCMQALQTPPTFGGGTKVEIK
modifications: In the FIG. 3 assay the antibody carried Alexa Fluor 647 (p-1610); the site is not given and the letters do not carry it.
notes: also called sCD33B1478
With B6, the binding result in experiment [3] is “binds”.

B7: C33B1476 (antibody, V domains shown)
VH: EVQLVESGGGLVQPGGSLKVSCEASGFTFSVSAIHWVRQASGKGLEWIGRIRSKGNSYATAYNVSVKGRFTISRDDSKNTAYLQMDSLKTEDTAVYYCTRHNDKWNYYGLDVWGQGTTVTVSS
VL: DIVMTQSPLSLPVTPGEPASISCKSSQSLLFSNGYKFLDWYLQRPGQSPQLLIYLGSYRASGVPDRFSGSGSGTDFTLKISRVEAEDVGLYYCMQALQTPPTFGGGTKVEIK
notes: also called sCD33B1476
B7 displayed an EC50 in experiment [4] of 0.8 nM. That is a sub-nanomolar value.

B8: C33B1787 (llama vHH on mono-Fc backbone) (Fc fusion)
chain: EVQLVESGGGLVQAGGSLRLSCAASGFTFDDYAIGWFRQAPGKEREGVSCISSSDGSTYYVDSVKGRFTISSDNAKNTVYLQMNSLKPEDTAVYYCTALIIMYGSGSERAAAACRYKYEYWGQGTQVTVSS
notes: not shown: mono-Fc backbone
Regarding B8, the Kd in experiment [5] was found to be 0.792 nM.

B9: C33B1781 (llama vHH on mono-Fc backbone) (Fc fusion)
chain: EVQVVESGGGLVQGGGSLRLSCAASGSIFSINAMGWYHQAPGKQRELVARITGGGATDYVDSVKGRFTISLDSAKSTVYLQMNSLKPEDTAVYHCYADLVTRVGSDLLYDDYWGQGTQVTVSS
notes: not shown: mono-Fc backbone
In the case of B9, the figures for the Kd in experiment [6] and in experiment [5] were 0.0559 nM and 2.21 nM, respectively.

B10: C33B1786 (llama vHH on mono-Fc backbone) (Fc fusion)
chain: EVQVVESGGGVVQSGGSLTLSCEASESILSFSTMDWFRQAPGKEREGVSCIRPRYSTTTHADSIKGRFKMYSDNAKNTIYLHMNSLQPEDTAVYYCHMYHYSSQYWGQGTQVTVSS
notes: not shown: mono-Fc backbone
In the case of B10, in experiment [5], the Kd stood at 0.357 nM.

B11: C33B1601 (antibody, V domains shown)
VH: EVQLVESGGGLVRPGGSLKLSCAASGFTFSNYAMSWVRQTPEKRLEWVAGISNSGYSLYYPDTLKGRFTISRDNARNTLYLQMISLRSEDTAMYYCARDGGSYPYAMDYWGHGTSVTVSS
VL: DIVMTQSQKFMSTSVGDRVSVTCKASQNVGTYVAWYQQKPGHSPKALIYSASYRYSGVPDRFTGSGSGTDFTLTISNVQSEDLADYFCQQYKSYPLTFGAGTKLELK
Regarding B11, the Kd in experiment [2] turned out to be 6.8 nM; in experiment [1], 1.1 nM.

B12: C33B1607 (antibody, V domains shown)
VH: EVQLQQSGPELVKPGSSVKISCKASGYTFTDYNINWVKQSHGKNLEWIGTINPNNGVTFYNQRFKGQATLTVDKSSSTAYMELRSLTSEDSAVYYCSRDGYDTYYAMDYWGQGTTLTVSS
VL: DIVMTQSHKFMSTSVGDRVSITCKASQDVRTAEAWYQQKPGQSPKLLIYSASNRYTGVPDRFTGSGSGTDFTFTISSVQAEDLAVYYCQQYYTTPRTFGGGTKLEIK
In the case of B12, the binding result in experiment [2] was “no binding (tested: 40 nM-1.6 nM CD33 antigen)”. Moreover, in experiment [1], the Kd worked out at 1.49 nM.

B13: C33B1788 (llama vHH on mono-Fc backbone) (Fc fusion)
chain: QVQLVESGGGLVQPGGSLRLSCAVFGFSLSDYAIGWFRQAPGKEREKVSCISESDGRTYLSDSVKSRFTISRDNGKNTVYLQMNNLKPDDTGVYYCATVDQAISESSYHCEKGFGSWGQGTQVTVSS
notes: not shown: mono-Fc backbone
For B13, the Kd stood at 4.34 nM in experiment [6] and 0.707 nM in experiment [5].

B14: C33B1789 (llama vHH on mono-Fc backbone) (Fc fusion)
chain: QVQLVESGGGLVQAGGSLRLSCAVFGFSLSDYAIGWFRQAPGKEREKVSCISESDGRTYLSDSVKSRFTISRDNGKNTVYLQMNNLKPDDTGVYYCATVDQAISESSYHCEKGFGSWGQGTQVTVSS
notes: not shown: mono-Fc backbone
B14: the Kd in experiment [6] amounted to 3.03 nM; in experiment [5] it was 0.67 nM.

B15: C33B1784 (llama vHH on mono-Fc backbone) (Fc fusion)
chain: EVQLVESGGGLVQAGGSLRLSCAASGRTFSTYVMGWFRQAPGQERELVAAIVSGRNPTYADSVKSRFTISRDNAKNTIYLHMNSLQPEDTAVYYCHMYHYSSQYWGQGTQVTVSS
notes: not shown: mono-Fc backbone
Take B15: in experiment [5], the binding result is “binds”.

B16: C33B1495 (antibody, V domains shown)
VH: EVQLVESGGGLVQPGGSLRLSCTASGFTFSSYWMSWVRQAPGKGLDWVANIKRDGSEKHYVDSVKGRFTISRDNAKNSLYLQMNSLRAEDSAVYYCTRDYGYFDYWGQGTLVTVSS
VL: DIQLTQSPSFLSASVGDRVTITCRASQGISSYLAWYQQKPGKAPKVLIYAASTLQSGVPSRFSGSGSGTEFTLTISSLQPEDFATYFCQQLNSYPVTFGGGTKVEIK
notes: also called sCD33B1495
On to B16, for which the binding result in experiment [3] is listed as “binds”.

B17: C33B1783 (llama vHH on mono-Fc backbone) (Fc fusion)
chain: EVQLVESGGGLVQAGGSLRLSCAASGFTFDDYAVGWFRQVPGKEREGVSCISSSDGATYYADSVKGRFTISSDNAKNTVYLQMNSLKPEDTAVYYCTAIIVRGSGWERAAAACRYEYSYWGQGTQVTVSS
notes: vHH is placed first; not shown: mono-Fc backbone
As for B17, the Kd in experiment [5] is 0.0859 nM.

B18: C33B1782 (llama vHH on mono-Fc backbone) (Fc fusion)
chain: EVQLVESGGGLVQAGGSLRLSCAASGFTFDDYAVGWFRQAPGKEREGISCISSSDGATYYADSVKGRFTISTDNAKNTAFLQMNSLKPEDTAVYYCTAVIVRGTGWERAAAACRYEYAYWGQGTQVTVSS
notes: not shown: mono-Fc backbone
Regarding B18, the Kd in experiment [5] was 0.206 nM.

B19: C33B1517 (antibody, V domains shown)
VH: QVQLQESGPGLVKPSETLSLTCSVSGASIRNYYWSWIRQTAGKGLEWLGHIYSTGNIHYNPSLKSRVTMSVDTSNNQFSLKLRSVTAADTAVYYCARDNGAALFDYWGQGTLVTVSS
VL: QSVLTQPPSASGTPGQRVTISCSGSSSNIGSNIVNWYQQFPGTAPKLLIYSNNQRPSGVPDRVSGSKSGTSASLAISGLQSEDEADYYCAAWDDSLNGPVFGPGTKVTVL
Turning to B19, the EC50 in experiment [7] was 10.6 nM; in experiment [4], 1.4 nM. Further, the binding result in experiment [2] was “no binding (tested: 40 nM-1.6 nM CD33 antigen)”. The dissociation constant (Kd) in experiment [1] was determined as 4.44 nM.

B20: C33B1474 (antibody, V domains shown)
VH: QVQLVESGGGLVQPGGSLRLSCAASGFTFSSFGMSWVRQAPGKGLEWVANIKRDGSEKYYVDSVKGRFTISRDNAKNSLFLQMSSLRAEDTAVYYCVRDYGYFDFWGQGTLVTVSS
VL: DIQMTQSPSSLSASVGDRVTITCQASQAISNYLNWYQQKPGKAPKLLIYDASNLETGVPSRFSGSGSGTDFTFTISSLQPEDFSTYFCQHYDNLPYTFGQGTKLEIK
Take B20: the EC50 in experiment [7] is 78.4 nM; in experiment [4], 1.26 nM. The figures for the Kd in experiment [2] and in experiment [1] were 3.99 nM and 2.47 nM, respectively.

For the origin of these results see patent US20230365684A1 (Janssen / Centocor, published 2023).
